Experimental data from patent US20230220042A1 (SHANGHAI JIAO TONG UNIVERSITY SCHOOL OF MEDICINE, published 2023).
Where a chain is given by its changes, count along the chain named. Numbers in names are those of the source.

T1: FcγRIIA^131H (human, UniProt P12318 34-217, biotin-labeled)
T1 construct: extracellular domain; Bought protein; also called RIIAH
T1 sequence (looked up): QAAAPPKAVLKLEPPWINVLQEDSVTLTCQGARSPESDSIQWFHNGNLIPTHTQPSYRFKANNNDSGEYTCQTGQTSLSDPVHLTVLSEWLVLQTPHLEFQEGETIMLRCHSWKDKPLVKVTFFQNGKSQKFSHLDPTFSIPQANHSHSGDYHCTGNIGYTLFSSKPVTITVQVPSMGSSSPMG

T2: FcγRIIB (human, UniProt P31994 43-217, biotin-labeled)
T2 construct: extracellular domain; Bought protein; also called CD32b
T2 sequence (looked up): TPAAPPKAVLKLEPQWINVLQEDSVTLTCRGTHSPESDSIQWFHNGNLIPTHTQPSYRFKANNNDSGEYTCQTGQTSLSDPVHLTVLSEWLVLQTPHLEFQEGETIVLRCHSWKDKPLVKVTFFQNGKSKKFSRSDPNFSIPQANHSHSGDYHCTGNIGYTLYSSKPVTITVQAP

T3: Biotin-FcγRIIB (human, UniProt P31994 43-217, limits assumed, biotin-labelled)
T3 construct: Bought, biotin-labelled; used at 1 µg/ml for staining and sorting; also called human FcγRIIB; CD32b
T3 sequence (looked up): T2 sequence (looked up)

T4: Biotin-FcγRIIB (human, UniProt P31994 43-217, limits assumed, biotin label)
T4 construct: Soluble labelled protein used to stain and sort the display cells; also called human FcγRIIB; CD32b
T4 sequence (looked up): T2 sequence (looked up)

B1: anti-human OX40 IgG2 antibody Mut_26 (V234Q/A235G/P238L/S239V/S267E/H268S/E269D) (antibody)
heavy: QVQLQESGPGLVKPSGTLSLTCAVSGGSISSSIWWSWVRQPPGKGLEWIGEIHHSGNTNCNPSLKSRVTISIDKSKNQFSLKLTSVTAADTAVYYCARAGTGTTLDYWGQGTLVTVSSASTKGPSVFPLAPCSRSTSESTAALGCLVKDYFPEPVTVSWNSGALTSGVHTFPAVLQSSGLYSLSSVVTVPSSNFGTQTYTCNVDHKPSNTKVDKTVERKCCVECPPCPAPPQGGLVVFLFPPKPKDTLMISRTPEVTCVVVDVESDDPEVQFNWYVDGVEVHNAKTKPREEQFNSTFRVVSVLTVVHQDWLNGKEYKCKVSNKGLPAPIEKTISKTKGQPREPQVYTLPPSREEMTKNQVSLTCLVKGFYPSDIAVEWESNGQPENNYKTTPPMLDSDGSFFLYSKLTVDKSRWQQGNVFSCSVMHEALHNHYTQKSLSLSPGK
light: EIVLTQSPGTLSLSPGERATLSCRASQSVSGDYLAWYQQKLGQAPRLLIYGASIRATGIPDRFSGSGSGTDFTLTISKLEPEDFAVYYCQQYGSSPLTFGGGTKVEIKRTVAAPSVFIFPPSDEQLKSGTASVVCLLNNFYPREAKVQWKVDNALQSGNSQESVTEQDSKDSTYSLSSTLTLSKADYEKHKVYACEVTHQGLSSPVTKSFNRGEC
notes: Substitutions in Eu numbering; entries include an unstated signal peptide
B2: human IgG2 anti-mouse CD40 surface displayed antibody, Fc mutant G327A/A330R (antibody, name in EU numbering)
light chain (with the P2A rest): DTVLTQSPALAVSPGERVTISCRASDSVSTLMHWYQQKPGQQPKLLIYLASHLESGVPARFSGSGSGTDFTLTIDPVEADDTATYYCQQSWNDPWTFGGGTKLELKRTVAAPSVFIFPPSDEQLKSGTASVVCLLNNFYPREAKVQWKVDNALQSGNSQESVTEQDSKDSTYSLSSTLTLSKADYEKHKVYACEVTHQGLSSPVTKSFNRGECGSGATNFSLLKQAGDVEENPG
heavy chain: EVQLVESDGGLVQPGRSLKLPCAASGFTFSDYYMAWVRQAPTKGLEWVASISYDGSSTYYRDSVKGRFTISRDNAKSTLYLQMDSLRSEDTATYYCGRHSSYFDYWGQGVMVTVSSASTKGPSVFPLAPCSRSTSESTAALGCLVKDYFPEPVTVSWNSGALTSGVHTFPAVLQSSGLYSLSSVVTVPSSNFGTQTYTCNVDHKPSNTKVDKTVERKCCVECPPCPAPPVAGPSVFLFPPKPKDTLMISRTPEVTCVVVDVSHEDPEVQFNWYVDGVEVHNAKTKPREEQFNSTFRVVSVLTVVHQDWLNGKEYKCKVSNKALPRPIEKTISKTKGQPREPQVYTLPPSREEMTKNQVSLTCLVKGFYPSDIAVEWESNGQPENNYKTTPPMLDSDGSFFLYSKLTVDKSRWQQGNVFSCSVMHEALHNHYTQKSLSLSPGKLEPPPSTVSNMATVAVLVVLGAAIVTGAVVAFVMKMRRRNTGGKGGDYALAPGSQTSDLSLPDCKVMVHDPHSLA
notes: as m1; positions are Eu numbers; copies: 2 + 2
B3: human IgG2 anti-mouse CD40 surface displayed antibody, Fc mutant V266A/P271C (antibody, name in EU numbering)
light chain (with the P2A rest): B2 light chain (with the P2A rest)
heavy chain: B2 heavy chain with V261A, P266C, A322G, R325A
notes: as for B2
B4: human IgG2 anti-mouse CD40 surface displayed antibody, Fc mutant S267A/P271C (antibody, name in EU numbering)
light chain (with the P2A rest): B2 light chain (with the P2A rest)
heavy chain: B2 heavy chain with S262A, P266C, A322G, R325A
notes: as for B2
B5: human IgG2 anti-mouse CD40 surface displayed antibody, S267E/H268S/E269D (antibody, name in EU numbering)
light chain (with the P2A rest): B2 light chain (with the P2A rest)
heavy chain: B2 heavy chain with S262E, H263S, E264D, A322G, R325A
notes: As m1 with the Fc mutations
B6: human IgG2 anti-mouse CD40 surface displayed antibody, Fc mutant G327A/I332A (antibody, name in EU numbering)
light chain (with the P2A rest): B2 light chain (with the P2A rest)
heavy chain: B2 heavy chain with R325A, I327A
notes: as for B2
B7: human IgG2 anti-mouse CD40 surface displayed antibody, Fc mutant S267M/P271C (antibody, name in EU numbering)
light chain (with the P2A rest): B2 light chain (with the P2A rest)
heavy chain: B2 heavy chain with S262M, P266C, A322G, R325A
notes: as for B2
B8: human IgG2 anti-mouse CD40 surface displayed antibody, Fc mutant G327A/A330V (antibody, name in EU numbering)
light chain (with the P2A rest): B2 light chain (with the P2A rest)
heavy chain: B2 heavy chain with R325V
notes: as for B2
B9: human IgG2 anti-mouse CD40 surface displayed antibody, Fc mutant G327A/I332E (antibody, name in EU numbering)
light chain (with the P2A rest): B2 light chain (with the P2A rest)
heavy chain: B2 heavy chain with R325A, I327E
notes: as for B2
B10: human IgG2 anti-mouse CD40 surface displayed antibody, Fc mutant G327A/I332C (antibody, name in EU numbering)
light chain (with the P2A rest): B2 light chain (with the P2A rest)
heavy chain: B2 heavy chain with R325A, I327C
notes: as for B2
B11: human IgG2 anti-mouse CD40 surface displayed antibody, Fc mutant S267E/P271C (antibody, name in EU numbering)
light chain (with the P2A rest): B2 light chain (with the P2A rest)
heavy chain: B2 heavy chain with S262E, P266C, A322G, R325A
notes: as for B2

What was measured:
FcγRIIA^131R (human) = FcγRIIA^131R (human) (UniProt P12318); experiment: ELISA, coated antibody, biotin-FcγR;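 as to Absorbance value: antibody coated at 2 µg/mL at 100 µL per well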
FcγRI = biological target: T5, FcγRI (human, UniProt P12314 16-292, biotin-labeled); experiment: ELISA, coated antibody, biotin-FcγR;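 as to Absorbance value: antibody coated at 2 µg/mL at 100 µL per well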
T5 construct: extracellular domain; Bought protein; also called CD64
T5 sequence (P12314 16-292): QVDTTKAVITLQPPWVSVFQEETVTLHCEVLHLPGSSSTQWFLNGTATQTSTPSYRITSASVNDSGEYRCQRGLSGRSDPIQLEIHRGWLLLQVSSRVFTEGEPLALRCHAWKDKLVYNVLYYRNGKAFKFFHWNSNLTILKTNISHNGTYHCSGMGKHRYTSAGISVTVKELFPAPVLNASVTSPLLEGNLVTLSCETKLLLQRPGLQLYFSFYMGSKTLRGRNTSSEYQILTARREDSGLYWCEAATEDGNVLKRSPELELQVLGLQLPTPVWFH

FcγRIIA^131H = biological target: T1, FcγRIIA^131H; experiment: ELISA, coated antibody, biotin-FcγR;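 as to Absorbance value: antibody coated at 2 µg/mL at 100 µL per well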
FcγRIIB [1] = biological target: T2, FcγRIIB; experiment: ELISA, coated antibody, biotin-FcγR;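 as to Absorbance value: antibody coated at 2 µg/mL at 100 µL per well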
FcγRIIIA^158F = biological target: T6, FcγRIIIA^158F (human, UniProt P08637 17-208, biotin-labeled); experiment: ELISA, coated antibody, biotin-FcγR;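 as to Absorbance value: antibody coated at 2 µg/mL at 100 µL per well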
T6 construct: extracellular domain; Bought protein; also called RIIIAF
T6 sequence (P08637 17-208): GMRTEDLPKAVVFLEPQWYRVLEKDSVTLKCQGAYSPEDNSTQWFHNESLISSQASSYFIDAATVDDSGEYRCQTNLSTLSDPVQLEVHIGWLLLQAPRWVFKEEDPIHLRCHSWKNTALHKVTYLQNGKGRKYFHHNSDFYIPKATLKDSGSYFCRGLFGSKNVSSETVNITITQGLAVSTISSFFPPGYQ

FcγRIIIA^158V = biological target: T7, FcγRIIIA^158V (human, UniProt P08637 17-208, biotin-labeled); experiment: ELISA, coated antibody, biotin-FcγR;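 as to Absorbance value: antibody coated at 2 µg/mL at 100 µL per well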
T7 construct: extracellular domain; Bought protein; also called RIIIAV; CD16a 158V
T7 sequence (P08637 17-208 F176V): as the sequence (P08637 17-208) above, with F160V counted along it

FcγRIIB [2] = biological target: T2, FcγRIIB; experiment: ELISA; relative affinity to FcγRIIB over that to FcγRIIA131R
Biotin-FcγRIIB [3] = biological target: T3, Biotin-FcγRIIB; experiment: FACS sorting of displayed Fc library on biotin-FcγRIIB, NGS
Biotin-FcγRIIB [4] = biological target: T3, Biotin-FcγRIIB; experiment: FACS sorting of displayed Fc library on biotin-FcγRIIB, NGS; reference G327A
Biotin-FcγRIIB [5] = biological target: T3, Biotin-FcγRIIB; experiment: FACS sorting of displayed Fc library on biotin-FcγRIIB, NGS; reference P271C
Biotin-FcγRIIB [6] = biological target: T4, Biotin-FcγRIIB; experiment: NGS of 3T3 display library IgG2_C02 flow-sorted for FcγRIIB binding
From the text: Then flow cytometry is used for sorting the cells with high affinity to FcγRIIB for two to three rounds. […] IgG2_C01 is a combined mutation (Type I) library having at most 1 mutation in each of the four regions of P233-V240, V266-P271, S298-T299, and G327-I332; IgG2_C02 is a cell library made by combining the combined mutation (Type II) libraries of four regions of P233-V240, V266-P271, S298-T299 and G327-I332 together and transferring it into 3T3 cells.

Biotin-FcγRIIB [7] = biological target: T3, Biotin-FcγRIIB; experiment: FACS sorting of displayed Fc library on biotin-FcγRIIB, NGS; reference S267E

Row | Binder | Enrichment factor (after/before sorting) (Biotin-FcγRIIB [3]) | Increased factor a (enrichment factor/wild-type enrichment factor) (Biotin-FcγRIIB [3]) | Increased factor 2 c Site 1 (combined/point mutation) (Biotin-FcγRIIB [4]) | Increased factor 2 c Site 2 (combined/point mutation) (Biotin-FcγRIIB [5]) | also measured
1 | B1 |  |  |  |  | Absorbance value (FcγRIIA^131R (human)): 0.08 A650; Relative binding affinity RIIAR/G1 (FcγRIIA^131R (human)): 0.32; Absorbance value (FcγRI): 0.19 A650; Relative binding affinity RI/G1 (FcγRI): 0.07 ratio; Absorbance value (FcγRIIA^131H): 0.06 A650; Relative binding affinity RIIAH/G1 (FcγRIIA^131H): 0.11 ratio; Absorbance value (FcγRIIB [1]): 0.55 A650; Increased factor of RIIB binding compared with wild-type IgG2 (FcγRIIB [1]): 7.28 fold; Relative binding affinity RIIB/G1 (FcγRIIB [1]): 0.72 ratio; Absorbance value (FcγRIIIA^158F): 0.08 A650; Relative binding affinity RIIIAF/G1 (FcγRIIIA^158F): 0.41 ratio; Absorbance value (FcγRIIIA^158V): 0.09 A650; Relative binding affinity RIIIAV/G1 (FcγRIIIA^158V): 0.09 ratio; RIIB/RIIAR (FcγRIIB [2]): 2.24 ratio
2 | B2 | 98.3 | 65.8 | 19.5 |  | 
3 | B3 | 42.2 | 73.5 |  | 2.5 | 
4 | B4 | 37.4 | 65.1 |  | 2.2 | 
5 | B5 |  |  |  |  | enrichment factor, percentage after 1st sorting/percentage before sorting (Biotin-FcγRIIB [6]): 80.5 ratio; enrichment factor, percentage after 2nd sorting/percentage after 1st sorting (Biotin-FcγRIIB [6]): 83.7 ratio; enrichment factor, percentage after 2nd sorting/percentage before sorting (Biotin-FcγRIIB [6]): 6730 ratio; increased factor, mutant enrichment factor/wild-type enrichment factor (Biotin-FcγRIIB [6]): 7970 ratio
6 | B6 | 29.2 | 19.5 | 5.8 |  | 
7 | B7 | 32.1 | 56 |  | 1.9 | 
8 | B8 | 6.98 | 4.67 | 1.4 |  | 
9 | B9 | 126 | 84.1 | 24.9 |  | 
10 | B10 | 11.4 | 7.64 | 2.3 |  | 
11 | B11 | 1000 | 1740 |  | 58.4 | Increased factor 2 c Site 1 (combined/point mutation) (Biotin-FcγRIIB [7]): 61.2
